Measurements taken from patent publication US20170157198A1 (BAXALTA, published 2017).
Values belong to the binder of their own block, whether it stands above or below them. [ ]: non-standard residue; d: D form. Aib = CC(C)(N)C(=O)O

Legend:
[1] = target: T1, murine TFPI (murine, UniProt O54819 29-289, limits assumed); test: not specified
T1 construct: also called murine TFPI-1
T1 sequence (looked up): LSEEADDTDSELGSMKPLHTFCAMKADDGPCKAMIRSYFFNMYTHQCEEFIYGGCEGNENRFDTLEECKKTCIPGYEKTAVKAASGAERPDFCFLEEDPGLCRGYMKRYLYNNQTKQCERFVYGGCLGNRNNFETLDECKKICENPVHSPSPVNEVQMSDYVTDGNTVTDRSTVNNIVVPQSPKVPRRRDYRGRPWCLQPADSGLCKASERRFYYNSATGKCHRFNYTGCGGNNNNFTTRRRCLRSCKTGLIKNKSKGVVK

[2] = target: T2, TFPI (human TFPI-1α), as coated or added in the ELISA and model assays (human, UniProt P10646 29-304, limits assumed); test: cell-based or functional assay
[3] = target: T2, TFPI (human TFPI-1α), as coated or …; test: ELISA affinity (column head says EC50)

binding result [1]: binds
B1: JBT2329 (peptide)
peptide: FQSKPNVHVDGYFERLXAKLC
modifications: N-terminal acetyl (Ac); D-proline at 5; Aib at 17; C-terminal C(PEG), linear PEG 41.5 kD; C-terminal amide (NH2)

FXa Inhibition EC50 [2]: 13.4 nM
EC50 [3]: 18.2 nM
Binder: Ac-FQSK[dP]NVHVDGYFC(linear PEG 40 kDa)RL[Aib]AKL-NH2 [JBT2404]

FXa Inhibition EC50 [2]: 9 nM
B2: JBT2430 (peptide)
peptide: FQSKPNVHVDGYFERLXAKLK
modifications: not fully specified; K(AOA) coupled to PSA (polysialic acid) aldehyde; D-proline at 5; Aib at 17
